Like-named read-outs stand apart in the source and are kept apart here.
Experiments:
Test in all cases: fluorescence polarization
SRSF1 RRM1+2 [1] = molecular target: T1, SRSF1 RRM1+2 (UniProt Q07955 1-195)
SRSF1 RRM1+2 [2] = molecular target: T1, SRSF1 RRM1+2; remark: listed apart in the source
MBP-hnRNP A2/B1 (1-251) [3] = molecular target: T2, MBP-hnRNP A2/B1 (1-251) (UniProt P22626 1-251)
MBP-hnRNP A2/B1 (1-251) [4] = molecular target: T2, MBP-hnRNP A2/B1 (1-251); remark: listed apart in the source
MBP-hnRNP A2/B1 (1-251) [5] = molecular target: T2, MBP-hnRNP A2/B1 (1-251); remark: listed apart in the source

T2 sequence (P22626 1-251): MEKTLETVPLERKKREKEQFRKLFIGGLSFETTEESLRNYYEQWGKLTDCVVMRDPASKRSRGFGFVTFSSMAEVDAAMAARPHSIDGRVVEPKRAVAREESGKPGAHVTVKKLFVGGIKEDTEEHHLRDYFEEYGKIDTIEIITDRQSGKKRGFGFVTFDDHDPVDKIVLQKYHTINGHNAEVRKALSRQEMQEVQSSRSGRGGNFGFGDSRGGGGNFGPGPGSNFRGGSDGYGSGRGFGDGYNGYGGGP
T1 sequence (Q07955 1-195): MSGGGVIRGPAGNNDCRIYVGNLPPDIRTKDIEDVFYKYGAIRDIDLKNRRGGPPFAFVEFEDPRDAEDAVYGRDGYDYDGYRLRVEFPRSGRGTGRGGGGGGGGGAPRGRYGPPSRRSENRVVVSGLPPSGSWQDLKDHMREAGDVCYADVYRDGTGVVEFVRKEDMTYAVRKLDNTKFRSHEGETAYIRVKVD

B1: FAM-S3 (A3 3n) (ssRNA)
RNA: AGAAGAACAGAAGAACAGAAGAAC
- Kd (SRSF1 RRM1+2 [1]): 42.5 ± 33.9 nM

B2: FAM-S2 (A3 2n) (ssRNA)
RNA: AGAAGAACAGAAGAAC
- Kd (SRSF1 RRM1+2 [2]): 56.1 ± 17.5 nM

B3: FAM-H3 (10 mer 3n) (ssRNA)
RNA: AAGGACUAGCAAGGACUAGCAAGGACUAGC
- Kd (MBP-hnRNP A2/B1 (1-251) [3]): 24 ± 8.1 nM

B4: FAM-H2 (10 mer 2n) (ssRNA)
RNA: AAGGACUAGCAAGGACUAGC
- Kd (MBP-hnRNP A2/B1 (1-251) [4]): 135 ± 9 nM

B5: FAM-H1 (10 mer 1n) (ssRNA)
RNA: AAGGACUAGC
- Kd (MBP-hnRNP A2/B1 (1-251) [5]): 51.7 ± 9 nM

— paper PMC10038052
